Source: the supplement of paper PMC12764529
± gives the half width of the 95% confidence interval.

Key:
[1] = folding stability dG unfold from chymotrypsin proteolysis; higher = more stable
Outline: (§1)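 Unfolding free energy was derived, per protease or combined, against a sequence-predicted unfolded-state K50 and a shared folded-state K50, starting from K50 inferred by Bayesian fitting of sequencing counts. Digestion with trypsin and chymotrypsin was carried out on designed mini-proteins under 80 residues without cysteine in a PA-tagged cDNA display construct. Only designs with AlphaFold2 dimer inter-PAE above 15 were kept.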

[2] = folding stability dG unfold from trypsin proteolysis; higher = more stable
Outline: as §1

[3] = folding stability dG unfold (combined trypsin and chymotrypsin); higher = more stable
Outline: as §1

Sequence	folding stability dG unfold [1]	folding stability dG unfold [2]	folding stability dG unfold [3]
SAGGSAGGSAGVTIPDPGEEELRKALEAGREVRVAFPESGKVVLVEGPGPELGEEPEPAASAGGSAGGSAGG [r11_94_JUSTAS]	0.589 ± 0.012 kcal/mol	-0.619 ± 0.093 kcal/mol	0.275 ± 0.075 kcal/mol
SAGGKLTELIRSLFEKLNVPLEPLETGPNSAIFRFPGKPGVFELPGNSRIVIFEDGLVVVVAPPNDLSAGGS [r8_297_TrMRF]	1.57 ± 0.093 kcal/mol	1.51 ± 0.1 kcal/mol	1.61 ± 0.081 kcal/mol
SAGGSAGGSAGSVIVTSTTSTLPNGTVVTNETVSDPSNPGVTTKKTSTTYPDGSVTTTESSAGGSAGGSAGG [r11_483_JUSTAS]	1.73 ± 0.047 kcal/mol	0.213 ± 0.043 kcal/mol	1.36 ± 0.057 kcal/mol
SAGGIEEAIKEGKTVIIRVKVIDKETGKEYERTIEVPANEEISLEELLKALLPPGYEVEIEVVELEPSAGGS [r8_127_TrROS_Hall]	3.03 ± 0.51 kcal/mol	3.78 ± 0.33 kcal/mol	3.65 ± 0.4 kcal/mol
SAGGKVKVTVTPDGTVTIEFEAESVEEAIKAAKAFLEEAGFEVESIPVEVPPDGTVKVTAKIKPKNASAGGS [r8_253_TrMRF]	1.79 ± 0.11 kcal/mol	1.33 ± 0.06 kcal/mol	1.67 ± 0.14 kcal/mol
SAGGSAGGSAGGMVVLKTPERFVVVESVEVYVPVRDPDGTPVRWSPVRTEVRVTVIPPLASAGGSAGGSAGG [r7_3_JUSTAS]	2.13 ± 0.057 kcal/mol	1.34 ± 0.038 kcal/mol	1.86 ± 0.058 kcal/mol
SAGGSAGGSAGIITIWFPPDEEFRDFIENLPGPIEDVNIEPRNPGWIKVTLTMRMPPDQVSAGGSAGGSAGG [r11_143_TrROS]	0.864 ± 0.17 kcal/mol	0.703 ± 0.07 kcal/mol	0.871 ± 0.17 kcal/mol
SAGGSAGGSAGGKWHLITFTITMEMYVMKFDPENGKWKPVDPIPMEIQITFLIPPGDPISAGGSAGGSAGGS [r10_610_TrROS]	5.08 ± 0.2 kcal/mol	3.77 ± 0.25 kcal/mol	4.65 ± 0.47 kcal/mol
SAGGSAGGSAPMVLLLEFDSPEEATEAAKKIAEEFEKLGAKVEVEIFKPPEDKYLVLIRIDSAGGSAGGSAG [r3_211_TrMRF]	3.91 ± 0.12 kcal/mol	3.66 ± 0.38 kcal/mol	3.89 ± 0.21 kcal/mol
SAGGSAGGSAGGDDNDPGKIKIEVEVETYPIPNPNGEPFYITTHTIKIPNLDIEFMMIMPSAGGSAGGSAGG [r7_945_TrROS]	1.45 ± 0.039 kcal/mol	2.01 ± 0.1 kcal/mol	1.7 ± 0.11 kcal/mol
SAGGWTIREILEKNPNLREFAKEGWTIEIYYPNGKSGRVKIKEGSADDILDDINKNFPGPVEISITKSAGGS [r16_655_TrROS]	0.437 ± 0.23 kcal/mol	0.659 ± 0.072 kcal/mol	0.573 ± 0.14 kcal/mol
SAGMVKVEVEYRPLPNGTVEVTVKLTITEPVPDEDGNLYYKTKTLTITVPTTSLSEAPKHVEEFIKKLSAGG [r19_218_TrMRF]	4.03 ± 0.18 kcal/mol	2.52 ± 0.12 kcal/mol	3.37 ± 0.19 kcal/mol
SAGGMTITVPVDEEEAEEFIREATGELTALAEKYPDVPIEIEFPLKSGRVIRLRVYPKSKKVEIEVYDSAGG [r13_216_TrMRF]	2.559 ± 0.024 kcal/mol	2.48 ± 0.057 kcal/mol	2.57 ± 0.045 kcal/mol
SAGGSAGGSAGDFELDFEWHRTNDHVVLSNKARDPDNGKPLYISIIFDPDPGKLDISIMPSAGGSAGGSAGG [r17_242_TrROS]	-0.858 ± 0.59 kcal/mol	0.396 ± 0.036 kcal/mol	0.0261 ± 0.083 kcal/mol
SAGGSAGGSAGGMKPGEKPEVEYRVRIYDADTGEWREVPLEDLKKLKLPPGAVVEIEKVSAGGSAGGSAGGS [r10_1121_TrROS_Hall]	3.42 ± 0.067 kcal/mol	2.01 ± 0.14 kcal/mol	2.93 ± 0.15 kcal/mol
SAGGSAGGPNIRIIIKPDPENGTLKIWFVHPEPGRIQKYEFNMNGKWKIKEPVGPMKPGDPGLLSAGGSAGG [r6_149_TrROS]	1.52 ± 0.33 kcal/mol	0.668 ± 0.16 kcal/mol	1.33 ± 0.34 kcal/mol
PKYVIKAVNPKVGEVKTIEVDDDPEKAIEALKALKKADPDIKFYISGVKSDELIEAAKEAGLEDLNFTEVES [r1_114_TrMRF]	4.02 ± 0.27 kcal/mol	3.2 ± 0.15 kcal/mol	4.02 ± 0.32 kcal/mol
SAGRLTTELGDVKAEVFRIPNLNLSLVVYEYPTSVRTLLATEHGDTVTIHPLTETPLPLPPLSDLKSLSAGG [r19_328_TrMRF]	-0.064 ± 0.11 kcal/mol	0.0381 ± 0.068 kcal/mol	0.0233 ± 0.1 kcal/mol
NPGKPLEIDIEVDIFEFPGGKFAIITFPIRLPGNGYWVQIEFWINPDGGLVMKIDVYDPGNGKPEEITIPIS [r1_261_TrROS]	5.04 ± 0.2 kcal/mol	3.27 ± 0.27 kcal/mol	4.64 ± 0.2 kcal/mol
SAGERKVLVIENLTSEELIEAIREALEKSPPGLLILVPDPEKAEEIRRAFPGIPLVVLNRETGELVEVESAG [r5_391_TrMRF]	3.46 ± 0.044 kcal/mol	3 ± 0.12 kcal/mol	3.33 ± 0.099 kcal/mol
SAGAMQTVTLPTPDGRTVTLRHPGISVSVDPEKRTVTISVPSLGKVYTLTFAPDGTVAELSEEPIPELESAG [r5_342_JUSTAS]	3.231 ± 0.025 kcal/mol	1.53 ± 0.03 kcal/mol	2.82 ± 0.11 kcal/mol

Sequence	folding stability dG unfold [1]	folding stability dG unfold [2]	folding stability dG unfold [3]
SAGGSAGGSAGGGMVIVTREPENLTFTVYREDPSTGKLRRIGTFPVSPDELEKVLALLSSAGGSAGGSAGGS [r10_275_JUSTAS]	2.47 ± 0.074 kcal/mol	1.77 ± 0.053 kcal/mol	2.2 ± 0.079 kcal/mol
SAGGSAGGSAGGSSFTIKVELKDENGNKYTITVTGTGSAETVKKELEKKYPNKIVKITGSAGGSAGGSAGGS [r4_412_TrMRF]	2.897 ± 0.025 kcal/mol	1.93 ± 0.089 kcal/mol	2.69 ± 0.046 kcal/mol
SAGGSAGGMTLTLELTLENGKKVRIEVEVNENGSLKVKITYPNGKKVEIEVNMSLEELLKKLLSSAGGSAGG [r6_808_TrROS_Hall]	3.66 ± 0.14 kcal/mol	3.75 ± 0.26 kcal/mol	3.91 ± 0.29 kcal/mol
SAGGSAGGMKIEPIAEDEDYIVVRVEPDLPELLEELGLEVVGVEEEGDYVIVVVKVPPEVREKFSAGGSAGG [r6_108_TrMRF]	-0.0352 ± 0.11 kcal/mol	0.649 ± 0.022 kcal/mol	0.336 ± 0.11 kcal/mol
SAGGSAGMVLVRTPDGEVLLLPFTSPEEAEEALERLTGGRLVSVRLEGTPGDRLLLVAEVERPPGGSAGGSA [r15_447_TrMRF]	2.16 ± 0.059 kcal/mol	1.88 ± 0.045 kcal/mol	2.06 ± 0.11 kcal/mol
SAGGKKVKIKVTIVIKVEPGESVEEIAKKLAEELGLKVEVKVEVVKRKDGSLYVVIEVEIELPEELKPSAGG [r13_590_TrROS_Hall]	3.18 ± 0.24 kcal/mol	2.3 ± 0.16 kcal/mol	2.85 ± 0.56 kcal/mol
SAGGSAPPPIKIKFKYPNGRPMELEFNPENGNYEIKQPDGEKEEVPMENIKEIRIPPGIKDVEIVPSAGGSA [r15_1043_TrROS]	-0.0709 ± 0.41 kcal/mol	-0.579 ± 0.27 kcal/mol	< -1 kcal/mol
SAGFEARVLEVVDLGDRRVALFELRDPEEGRYLLAVAVYDPETGLARVELWDPTDGRLVATPVVPVLPLSAG [r5_440_TrMRF]	2.36 ± 0.047 kcal/mol	1.72 ± 0.027 kcal/mol	2.12 ± 0.066 kcal/mol
SAGGSAGGMEVPPDQRVLVLDVEGTPEAIEAFAEELVRRGFDKPVAVVAVDPETGKVTIVVPEDSAGGSAGG [r6_652_TrMRF]	1.06 ± 0.1 kcal/mol	0.771 ± 0.05 kcal/mol	1.08 ± 0.11 kcal/mol
SAGGSLFEKLNVKSVEVTEVKTYTLPPLPLTVEVPTVKVTLPDGTVIEFTVIKTYDPEDPTPTVTLGSAGGS [r8_422_JUSTAS]	1.31 ± 0.12 kcal/mol	0.822 ± 0.027 kcal/mol	1.08 ± 0.07 kcal/mol
SAGGSAGGSAGGSGLSFEIVEEREELLPDGRPRRRIFATLPGGRRLVIDDDGRITIDPDSAGGSAGGSAGGS [r4_111_TrMRF]	0.968 ± 0.15 kcal/mol	0.45 ± 0.33 kcal/mol	0.897 ± 0.25 kcal/mol
SAGGSAGGSKVEVKEFEFKANGSKALIEKLEDGSVKIIVLGEEPKEYEISPEEPIVILPGFEVSAGGSAGGS [r12_1003_TrMRF]	-0.172 ± 0.1 kcal/mol	-0.341 ± 0.068 kcal/mol	-0.172 ± 0.09 kcal/mol
SAGKIKIEVEYLDPNGDWRRYEHTIPFKPNQSFEEAINELLPPGLREIKITEVDPEEGTIKIDIWIRPDSAG [r5_227_TrROS]	2.5 ± 0.061 kcal/mol	2.12 ± 0.13 kcal/mol	2.41 ± 0.19 kcal/mol
SAGDLAEYIAETLQDHFPNMEVEVEIDGVEDGYIVIDITIYFRDMKDNENKPRWVPWEIVIPPGEPLPSAGG [r19_8_TrROS]	4.09 ± 0.051 kcal/mol	2.36 ± 0.14 kcal/mol	3.38 ± 0.19 kcal/mol
SAGGSAGGSMNVPPGESVTVTVPPGTGLEWLRAQLPSSRTWDFATFVSENPSPPVTTYEITVGSAGGSAGGS [r12_469_JUSTAS]	2 ± 0.077 kcal/mol	1.16 ± 0.078 kcal/mol	1.76 ± 0.11 kcal/mol
SAGGSAGGSAGGKHKIPITNVHVSPPNGYIHVTIRFPGDGKPIEIHFPVPPGEPITIEISAGGSAGGSAGGS [r10_940_TrROS]	3.53 ± 0.27 kcal/mol	2.28 ± 0.14 kcal/mol	2.74 ± 0.2 kcal/mol
SAGGMLVVLLDDRPEVLPVNPERFETPEEAVEAVAREVAERFPDAGERRVVVVNEDGEEVATVELTPESAGG [r13_257_TrMRF]	0.875 ± 0.04 kcal/mol	-1.08 ± 0.12 kcal/mol	0.459 ± 0.052 kcal/mol
SAGKKKVIIVKVKPEDLEKLLEAIKKLPKEKVKRIEIEVNGKLYLIEVTDKEIKIYDIETGEEKTIKLSAGG [r19_154_TrROS_Hall]	2.6 ± 0.061 kcal/mol	2.1 ± 0.22 kcal/mol	2.39 ± 0.56 kcal/mol
SAGGSAGGSGSSSMPVTVEVKPLATEVDPSNGLVTVTELVTVTRGDTTTLTVTTTTLPPGAPASAGGSAGGS [r12_1010_JUSTAS]	0.00037 ± 0.064 kcal/mol	1.16 ± 0.027 kcal/mol	0.591 ± 0.098 kcal/mol
SMKIEIIERNEDGEYVLVRITFEDGEEITIVAKTEEEAKEAAKEIAKELFPDVKIKKIEVVPLEDLPEELSA [r9_137_TrROS_Hall]	0.251 ± 0.37 kcal/mol	1.62 ± 0.14 kcal/mol	1 ± 0.31 kcal/mol
SAGGSAGGSMTRTITLSKEELKKKYPNATLEEIAKDIIEKEPGVKEVTVEEFPGTVKITVTKLSAGGSAGGS [r12_590_JUSTAS]	2.84 ± 0.058 kcal/mol	2 ± 0.086 kcal/mol	2.57 ± 0.18 kcal/mol
